Experimental data: publication PMC4219786, “Glycan Dependence of Galectin-3 Self-Association Properties” (PLoS ONE, 2014)
Blank lines part the entries; values can stand above or below the compound they belong to.

Tests used:
Galectin-3 = target: T1, Galectin-3 (Homo sapiens, UniProt P17931); experiment: SPR steady-state KD; 1H-15N HSQC NMR titration (slow exchange); assay type: binding
T1 construct: gene LGALS3; CRD domain (114–250), C-terminal 6His-tag

[1] = target: full length human Galectin-3 (1-250) (human) (UniProt P17931); experiment: dynamic light scattering; before filtration, after purification and freezing at -80°C; no glycan; 41 µM CRD, 37 µM FL; 5 mM potassium phosphate pH 7.4; 25°C
[2] = target: full length human Galectin-3 (1-250) (human) (UniProt P17931); experiment: dynamic light scattering; after centrifugation and filtration; with 140 µM LNnT (CRD up to 1.2 mM LNnT); 41 µM CRD, 37 µM FL; 5 mM potassium phosphate pH 7.4; 25°C
[3] = target: human Galectin-3 Carbohydrate Recognition Domain (114-250) (human) (UniProt P17931); experiment: dynamic light scattering; before filtration, after purification and freezing at -80°C; no glycan; 41 µM CRD, 37 µM FL; 5 mM potassium phosphate pH 7.4; 25°C

T1 sequence (P17931 114-250): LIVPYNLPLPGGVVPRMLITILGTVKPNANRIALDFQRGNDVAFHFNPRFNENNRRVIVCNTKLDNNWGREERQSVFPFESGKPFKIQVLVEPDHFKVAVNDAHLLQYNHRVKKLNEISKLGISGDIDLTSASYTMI

Compound: CC(=O)N[C@H]1[C@H](O[C@H]2[C@@H](O)[C@@H](CO)O[C@@H](O[C@H]3[C@H](O)[C@@H](O)C(O)O[C@@H]3CO)[C@@H]2O)O[C@H](CO)[C@@H](O[C@@H]2O[C@H](CO)[C@H](O)[C@H](O)[C@H]2O)[C@@H]1O (some centres unmarked) [LNnT, lacto-N-neoTetraose]
Kd (Galectin-3): 140 ± 17 µM

% mass of size >100 nm [1]: 67%
% mass of size <100 nm (46.73 nm), with 140 µM LNnT [2]: 8.7%
% mass of size >100 nm, with 140 µM LNnT [2]: 91.3%
Compound: full length human Galectin-3 (1-250) (from UniProt P17931 1-250) (natural protein)

% mass of size >100 nm [3]: 0.7%
Compound: human Galectin-3 Carbohydrate Recognition Domain (114-250) (from UniProt P17931 114-250) (domain or fragment)
